How the values were obtained:
[1] = target: T1, 人源性Prdx1重组蛋白 (recombinant peroxiredoxin 1 protein bought from Abclone) (human, UniProt Q06830 1-199, limits assumed); test: ELISA on recombinant human Prdx1
T1 construct: Bought recombinant protein; also called 重组prdx1蛋白; 重组Prdx1
T1 sequence (looked up): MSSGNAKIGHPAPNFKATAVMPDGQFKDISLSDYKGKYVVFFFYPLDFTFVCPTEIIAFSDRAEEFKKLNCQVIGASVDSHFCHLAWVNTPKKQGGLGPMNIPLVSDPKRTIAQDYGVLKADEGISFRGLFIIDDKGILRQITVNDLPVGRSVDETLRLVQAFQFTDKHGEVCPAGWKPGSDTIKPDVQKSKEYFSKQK

[2] = target: T2, 小鼠Prdx1蛋白 (endogenous mouse Prdx1 in liver, lung, kidney tissue and primary macrophages) (mouse, UniProt P35700 2-199); test: Western blot on mouse liver, lung, kidney, primary macrophages
T2 construct: Endogenous protein, denatured on Western blot; also called 鼠源性Prdx1蛋白; 小鼠的Prdx1蛋白
T2 sequence (looked up): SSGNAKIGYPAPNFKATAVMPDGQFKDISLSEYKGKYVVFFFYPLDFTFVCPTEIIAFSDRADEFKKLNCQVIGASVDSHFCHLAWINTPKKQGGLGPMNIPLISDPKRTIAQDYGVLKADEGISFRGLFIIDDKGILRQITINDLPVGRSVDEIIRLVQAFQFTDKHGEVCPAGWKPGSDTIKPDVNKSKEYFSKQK

- binding result [1]: binds
- binding result [2]: binds
B1: 抗Prdx1蛋白的单克隆中和抗体 (mouse monoclonal anti-human Prdx1 neutralizing antibody, Example 4) (antibody, V domains shown)
VH: QVQLQQSGPELMKPGASVKISCKATGYTFSNSWIEWVKQRPGHGLEWIGEILPGSGDTDYNEKFKGKATITADTSSNTAYMQLSSLTSEDSAVYYCASPYGDYFFANWGLGTLVTVSA
VL: DIVITQDELSNPVTSGESVSISCRSSKSLLYKDGKTYLNWFLQRPGQSPQLLIYLMSTRAAGVSDRFSGSGSGTDFTLEISRVKAEDVGVYYCQQLVEYPYTFGGGTKLEIK
notes: Mouse (BALB/c) hybridoma IgG purified from ascites on protein G; also called Prdx1单克隆抗体; Prdx1单克隆中和抗体

Reference: patent publication CN117003877A (XIANGYA HOSPITAL CENTRAL SOUTH UNIV, dated 2023)
